13 molecules from patent US20250019438A1 (AstraZeneca / MedImmune, published 2025) can be followed below.

Substitutions are numbered along the chain they refer to.

B1: EGFR-CD3 DuetMab with the parental anti-CD3 arm (bispecific antibody, part only; not given: anti-EGFR arm, constant regions, V domains shown, not shown: another chain or arm of the molecule; a dimerising Fc or GST; small tags and cut ends)
VH: QVQLVESGGGVVQPGRSLRLSCAASGFTFTKAWMHWVRQAPGKQLEWVAQIKDKSNSYATYYADSVKGRFTISRDDSKNTLYLQMNSLRAEDTAVYYCRGVYYALSPFDYWGQGTLVTVSS
VL: DIVMTQTPLSLSVTPGQPASISCKSSQSLVHNNANTYLSWYLQKPGQSPQSLIYKVSNRFSGVPDRFSGSGSGTDFTLKISRVEAEDVGVYYCGQGTQYPFTFGSGTKVEIK
B2: EGFR-CD3 DuetMab with anti-CD3 variant AZ Vκ 26 + AZ VH E75 (bispecific antibody, part only; not given: anti-EGFR arm, constant regions, V domains shown, not shown: another chain or arm of the molecule; a dimerising Fc or GST; small tags and cut ends)
VH: EVQLVESGGALVKPGGSLRLSCAASGFTFTEAWMHWVRQAPGKQLEWVAQIKDRSQTYATYYAESVKGRFTISRDDSKNTLYLQMNSLKTEDTAVYYCRGVYYANAPFDYWGQGTLVTVSS
VL: B1 VL with T7S, S12P, Q17E, K24R, N33T, A34G, F60A, Y99A, T102S
B3: EGFR-CD3 DuetMab with anti-CD3 variant AZ Vκ 29 + AZ VH R75 (bispecific antibody, part only; not given: anti-EGFR arm, constant regions, V domains shown, not shown: another chain or arm of the molecule; a dimerising Fc or GST; small tags and cut ends)
VH: B2 VH with E31R
VL: B1 VL with T7S, S12P, Q17E, K24R, N33T, A34G, F60A, Y99F
B4: EGFR-CD3 DuetMab with anti-CD3 variant AZ Vκ 26 + AZ VH SN82 (bispecific antibody, part only; not given: anti-EGFR arm, constant regions, V domains shown, not shown: another chain or arm of the molecule; a dimerising Fc or GST; small tags and cut ends)
VH: B2 VH with T30S, E31N, A106T
VL: B1 VL with T7S, S12P, Q17E, K24R, N33T, A34G, F60A, Y99A, T102S
B5: EGFR-CD3 DuetMab with anti-CD3 variant AZ Vκ 29 + AZ VH R79 (bispecific antibody, part only; not given: anti-EGFR arm, constant regions, V domains shown, not shown: another chain or arm of the molecule; a dimerising Fc or GST; small tags and cut ends)
VH: B2 VH with E31R, N105V, A106T
VL: B1 VL with T7S, S12P, Q17E, K24R, N33T, A34G, F60A, Y99F
B6: EGFR-CD3 DuetMab with anti-CD3 variant AZ Vκ 26 + AZ VH SN79 (bispecific antibody, part only; not given: anti-EGFR arm, constant regions, V domains shown, not shown: another chain or arm of the molecule; a dimerising Fc or GST; small tags and cut ends)
VH: B2 VH with T30S, E31N, N105V, A106T
VL: B1 VL with T7S, S12P, Q17E, K24R, N33T, A34G, F60A, Y99A, T102S
B7: EGFR-CD3 DuetMab with anti-CD3 variant AZ Vκ 26 + AZ VH SN75 (bispecific antibody, part only; not given: anti-EGFR arm, constant regions, V domains shown, not shown: another chain or arm of the molecule; a dimerising Fc or GST; small tags and cut ends)
VH: B2 VH with T30S, E31N
VL: B1 VL with T7S, S12P, Q17E, K24R, N33T, A34G, F60A, Y99A, T102S
B8: EGFR-CD3 DuetMab with anti-CD3 variant AZ Vκ 26 + AZ VH E82 (bispecific antibody, part only; not given: anti-EGFR arm, constant regions, V domains shown, not shown: another chain or arm of the molecule; a dimerising Fc or GST; small tags and cut ends)
VH: B2 VH with A106T
VL: B1 VL with T7S, S12P, Q17E, K24R, N33T, A34G, F60A, Y99A, T102S
B9: EGFR-CD3 DuetMab with anti-CD3 variant AZ Vκ 29 + AZ VH R82 (bispecific antibody, part only; not given: anti-EGFR arm, constant regions, V domains shown, not shown: another chain or arm of the molecule; a dimerising Fc or GST; small tags and cut ends)
VH: B2 VH with E31R, A106T
VL: B1 VL with T7S, S12P, Q17E, K24R, N33T, A34G, F60A, Y99F
B10: EGFR-CD3 DuetMab with anti-CD3 variant AZ Vκ 26 + AZ VH E79 (bispecific antibody, part only; not given: anti-EGFR arm, constant regions, V domains shown, not shown: another chain or arm of the molecule; a dimerising Fc or GST; small tags and cut ends)
VH: B2 VH with N105V, A106T
VL: B1 VL with T7S, S12P, Q17E, K24R, N33T, A34G, F60A, Y99A, T102S
B11: AZ Vκ 7 + AZ VH 21 (antibody, IgG1, V domains shown)
VH: B2 VH with T30S, E31N, W33Y, T57S, N105L, A106S
VL: B1 VL with T7S, S12P, Q17E, K24R, N33T, A34G, F60A
notes: member of the group m34
B12: AZ Vκ 7 + AZ VH 13 (antibody, IgG1, V domains shown)
VH: B2 VH with E31K, W33Y, T57S, N105L, A106S
VL: B1 VL with T7S, S12P, Q17E, K24R, N33T, A34G, F60A
notes: member of the group m34
B13: AZ Vκ+AZ VH IgG1-TM (antibody, V domains shown)
VH: B1 VH
VL: B1 VL
notes: also called parental AZ Vκ+AZ VH IgG1-TM; parental anti-CD3 antibody

T2 sequence (Q95LI5 22-198, chain 1 of 3): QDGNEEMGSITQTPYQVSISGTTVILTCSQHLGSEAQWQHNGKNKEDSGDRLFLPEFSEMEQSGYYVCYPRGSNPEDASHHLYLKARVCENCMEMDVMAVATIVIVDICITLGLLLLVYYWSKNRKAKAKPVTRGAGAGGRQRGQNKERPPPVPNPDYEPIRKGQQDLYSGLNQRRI
T2 sequence (Q95LI8 22-171, chain 2 of 3): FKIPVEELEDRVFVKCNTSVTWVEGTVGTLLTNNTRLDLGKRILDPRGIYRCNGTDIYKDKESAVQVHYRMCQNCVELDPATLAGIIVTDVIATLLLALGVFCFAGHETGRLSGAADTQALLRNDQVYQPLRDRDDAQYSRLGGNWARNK
T2 sequence (Q95LI7 23-181, chain 3 of 3): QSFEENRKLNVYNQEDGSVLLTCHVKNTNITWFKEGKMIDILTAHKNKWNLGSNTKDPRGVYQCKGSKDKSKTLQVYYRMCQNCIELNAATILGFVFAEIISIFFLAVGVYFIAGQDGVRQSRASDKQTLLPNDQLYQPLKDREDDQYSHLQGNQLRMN
T1 sequence (P07766 23-207, chain 1 of 3): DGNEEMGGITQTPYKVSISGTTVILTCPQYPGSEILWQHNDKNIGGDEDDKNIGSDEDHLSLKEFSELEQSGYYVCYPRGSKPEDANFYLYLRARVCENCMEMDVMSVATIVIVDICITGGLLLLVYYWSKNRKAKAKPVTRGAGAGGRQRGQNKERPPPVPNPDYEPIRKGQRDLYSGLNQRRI
T1 sequence (P04234 22-171, chain 2 of 3): as the sequence (Q95LI8 22-171, chain 2 of 3) above, with V5I, K15N, V20I, T32S, N33D, N34I, A64T, N74S, L83V, R141H counted along it
T1 sequence (P09693 23-182, chain 3 of 3): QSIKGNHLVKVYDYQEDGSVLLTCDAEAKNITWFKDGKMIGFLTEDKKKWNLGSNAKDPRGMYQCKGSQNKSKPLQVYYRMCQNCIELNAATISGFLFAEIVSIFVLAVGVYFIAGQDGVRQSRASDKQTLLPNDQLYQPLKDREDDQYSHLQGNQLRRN

One assay deals with Biotinylated recombinant human CD3εδ (Acro Biosystems, CDD-H82W6) (human) (UniProt P07766). The experiment in a line: Octet BLI, biotinylated CD3εδ on streptavidin sensors, 1:1 model. A general note: Biolayer interferometry detects binding as a change in optical thickness at a sensor tip.
Chain of Biotinylated recombinant human CD3εδ (Acro Biosystems, CDD-H82W6) (human) (P07766 23-126, stated change not applied, chain 1 of 2): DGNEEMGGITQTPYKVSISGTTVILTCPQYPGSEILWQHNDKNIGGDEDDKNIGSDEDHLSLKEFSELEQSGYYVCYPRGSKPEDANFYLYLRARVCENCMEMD
Chain of Biotinylated recombinant human CD3εδ (Acro Biosystems, CDD-H82W6) (human) (P04234 22-105, stated change not applied, chain 2 of 2, further chain): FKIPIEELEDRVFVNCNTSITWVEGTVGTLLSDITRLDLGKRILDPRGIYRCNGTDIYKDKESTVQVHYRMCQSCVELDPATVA
For orientation: Kd means the concentration at which binding is half-saturated. One may read the koff as the first-order rate constant of dissociation. The kon is a measure of how fast the partners come together. In the case of B1, the Kd was found to be 24.3 nM, the koff worked out at 0.00105 s⁻¹ and the kon is 43300 M⁻¹ s⁻¹.
Turning to B2, the Kd is 2280 nM, the koff is 0.0172 s⁻¹ and the kon came to 7540 M⁻¹ s⁻¹.
Consider B3, for which the Kd came to 224 nM, the koff was 0.0119 s⁻¹ and the kon was found to be 53300 M⁻¹ s⁻¹.
The matching figures for B4: 1710 nM, 0.0212 s⁻¹ and 12400 M⁻¹ s⁻¹.
For B5 the same measures were 878 nM, 0.0487 s⁻¹ and 55500 M⁻¹ s⁻¹.
For B6 the same measures were 1930 nM, 0.0361 s⁻¹ and 18700 M⁻¹ s⁻¹.
As to B7, the Kd came out at 949 nM, the koff was found to be 0.0155 s⁻¹ and the kon was 16300 M⁻¹ s⁻¹.
For B8 the same measures were 3920 nM, 0.0287 s⁻¹ and 7330 M⁻¹ s⁻¹.
With B9, the Kd was determined as 595 nM, the koff was found to be 0.0231 s⁻¹ and the kon was 38800 M⁻¹ s⁻¹.
For B10 the same measures were 4660 nM, 0.0511 s⁻¹ and 11000 M⁻¹ s⁻¹.

Another assay concerns the target T1, Human CD3 on HPB-ALL and Jurkat cells (human, UniProt P07766 23-207; P04234 22-171; P09693 23-182).
T1 construct: whole, on cells; also called hCD3+; human CD3+ cells
Put plainly: flow cytometry on HPB-ALL cells (hCD3+), detection with Alexa Fluor 647 goat F(ab')2 anti-human IgG Fcγ. On the procedure: (§1) Flow Cytometry was used to determine specific cell surface antigen binding. The human leukemia T cell lines HPB-ALL, Jurkat, Jurkat TCR KO, and cynomolgus T cell line HSC-F were used to assess human CD3 and cynomolgus CD3 binding, respectively. Briefly, 1×10⁵ cells were suspended in FACS buffer (1×PBS, pH 7.2 supplemented with 2% heat-inactivated FBS, 0.1% sodium azide and 2 mM EDTA) and placed into each well of a round-bottom 96-well plate. Antibodies were diluted to various concentrations using FACS buffer and added to the cells. Antibodies and cells were washed twice with FACS buffer after incubation at 4° C. for 30 min. Cell surface antigen binding of antibodies was detected with Alexa Fluor 647-conjugated goat F(ab′)₂ fragment specifically against human IgG Fcγ fragment. Data was collected using a BD FACSymphony A3 Cell Analyzer (BD Biosciences). Data was analyzed with FlowJo v10.6.1 and plotted using GraphPad Prism v9.0.0.
For B11, the binding result was “binds”.
The same measure, in the same setting: the value for B12 was “binds”.

A further assay has as its target T2, Cynomolgus monkey CD3 on HSC-F cells (cynomolgus monkey, UniProt Q95LI5 22-198; Q95LI8 22-171; Q95LI7 23-181).
T2 construct: whole, on cells; CD3 complex; also called cyCD3+; cynomolgus CD3+ cells
Put plainly: flow cytometry on HSC-F cells (cyCD3++), detection with Alexa Fluor 647 goat F(ab')2 anti-human IgG Fcγ. On the procedure: as §1
A general note: A flow cytometer gives signals particle by particle.
The EC50 (read off the curve) is the concentration at which the effect is half-maximal. Regarding B13, the “EC50 (read off the curve)” value is around 40 nM.
Take B11: the binding result is “binds”.
On the same count and under the same terms, to B12 belongs “binds”.

The target in the next assay is T1, Human CD3 on HPB-ALL and Jurkat cells. The experiment in a line: flow cytometry on HPB-ALL cells (hCD3++), EGFR-CD3 DuetMab, detection with Alexa Fluor 647 goat F(ab')2 anti-human IgG Fcγ.
For B1, the EC50 (read off the curve) amounted to 50 nM.

The next assay has as its target T2, Cynomolgus monkey CD3 on HSC-F cells. The experiment in a line: flow cytometry on HSC-F cells (cyCD3+), detection with Alexa Fluor 647 goat F(ab')2 anti-human IgG Fcγ. On the procedure: as §1
For the molecule B13, the “EC50 (read off the curve)” value is around 40 nM.
